Source: patent US5726024

Key:
p53 (wild type) = p53 (wild type) (UniProt P02340); test: cell_activity
[1] = target: p53as (alternatively spliced p53) (Mus musculus) (UniProt P02340); test: cell_activity
[2] = CAT reporter, human Saos-2 cells
[3] = luciferase reporter, mouse (10)1 cells

| Substance | activity (p53 (wild type); [2]) | activity [1, 2] | activity (p53 (wild type); [3]) | activity [1, 3] |
| --- | --- | --- | --- | --- |
| PG13 CAT reporter, 13 repeats of p53-binding site | 14 fold | 9 fold | – | – |
| WAF-1 promoter (WWP-1 luciferase) | – | – | 15 fold | 14 fold |
